{"source": "paper PMC9196870", "about": "“Crystal Structure of an Intramolecular Mesaconyl-Coenzyme A Transferase From the 3-Hydroxypropionic Acid Cycle of Roseiflexus castenholzii” (Frontiers in Microbiology, 2022)", "proteins": {"B1": {"name": "Mesaconyl-CoA C1-C4 CoA transferase (MCT) from Roseiflexus castenholzii (enzyme)", "chain": "MNGILSGMRIVEGSAFVAAPLGGMTLAQLGADVIRFDPIGGGLDYKRWPVTLDGKHSLFWAGLNKGKRSIAIDIRHPRGQELLTQLICAPGDEAGLFITNFPARGWLSYEALKAHRADLIMVNLLGRRDGGSEVDYTVNPQLGLPFMTGPFTSPEVVNHVLPAWDIVTGQMIALGLLAAERHRRRTGEGQLVKLALKDVGLAMIGHLGMIAEVMINDADRPKQGNYLYGAFGRDFETLDGKRVMVVGLTDLQWKALGKATGLTDAFNALGARLGLDMNDEGNRFRARREIAALLEPWFHARTFAEVRRVFEEHRVTWGPYRTVREAIAQDPDCSTENPMFTMVEQPGIGTYLMPASPLDFSRMPRLPAQRAPRLGEHTDEILLEVLGLSDGEVGKLHDEGIVAGPEEE"}}, "molecular_target": "the molecule itself", "assay": "SEC; gel filtration, Superdex 200 10/300 GL, 25 mM Tris-Cl pH 8.0, 150 mM NaCl, 0.5 mL/min", "data": [{"protein": "B1", "values": [{"measurement": "stoichiometry N", "value": 2}]}]}
